# Reference: IntAct's records for PubMed 36126419
# B1: 3-mercaptopyruvate sulfurtransferase (Homo sapiens), P25325 (parent)
# chain: MASPQLCRALVSAQWVAEALRAPRAGQPLQLLDASWYLPKLGRDARREFEERHIPGAAFFDIDQCSDRTSPYDHMLPGAEHFAEYAGRLGVGAATHVVIYDASDQGLYSAPRVWWMFRAFGHHAVSLLDGGLRHWLRQNLPLSSGKSQPAPAEFRAQLDPAFIKTYEDIKENLESRRFQVVDSRATGRFRGTEPEPRDGIEPGHIPGTVNIPFTDFLSQEGLEKSPEEIRHLFQEKKVDLSKPLVATCGSGVTACHVALGAYLCGKPDVPIYDGSWVEWYMRARPEDVISEGRGKTH
# Variants of: B1
# Conditions: with akt1_human AKT1, P31749
# akt1_human AKT1, P31749, sequence (P31749 whole entry): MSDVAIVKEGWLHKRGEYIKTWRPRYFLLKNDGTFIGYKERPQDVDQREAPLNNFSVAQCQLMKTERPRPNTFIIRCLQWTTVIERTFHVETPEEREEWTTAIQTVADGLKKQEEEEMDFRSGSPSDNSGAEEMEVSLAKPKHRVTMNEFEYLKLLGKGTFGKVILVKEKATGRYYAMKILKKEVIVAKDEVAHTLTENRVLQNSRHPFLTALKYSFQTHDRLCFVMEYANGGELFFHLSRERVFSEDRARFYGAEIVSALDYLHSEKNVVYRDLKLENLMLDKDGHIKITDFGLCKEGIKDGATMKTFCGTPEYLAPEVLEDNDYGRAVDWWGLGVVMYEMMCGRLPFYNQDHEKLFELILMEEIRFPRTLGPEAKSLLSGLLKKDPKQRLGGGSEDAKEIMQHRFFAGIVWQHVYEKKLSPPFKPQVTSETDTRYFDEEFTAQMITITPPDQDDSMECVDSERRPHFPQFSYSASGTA
row,effect of a mutation on the interaction,Variant
1,disrupting interaction strength,MASPQLCRALVSAQWVAEALRAPRAGQPLQLLDASWYLPKLGRDARREFEERHIPGAAFFDIDQCSDRTSPYDHMLPGAEHFAEYAGRLGVGAATHVVIYDASDQGLYSAPRVWWMFRAFGHHAVSLLDGGLRHWLRQNLPLSSGKSQPAPAEFRAQLDPAFIKTYEDIKENLESRRFQVVDSRATGRFRGTEPEPRDGIEPGHIPGTVNIPFTDFLSQEGLEKSPEEIRHLFQEKKVDLSKPLVATAGSGVTACHVALGAYLCGKPDVPIYDGSWVEWYMRARPEDVISEGRGKTH [C248A]
